These results are taken from patent publication US20090192084A1.

Test [1] deals with PLAP (human) (UniProt Q9Y263). The experiment in a line: Flag co-IP, 293 cells, MudPIT MS.
Test [2] deals with endogenous p97 (human) (UniProt P55072). Nature of the test: Flag co-IP, 293 cells, MudPIT MS.
In test [3] the target is endogenous NPL4 (human) (UniProt Q8TAT6). Nature of the test: Flag co-IP, 293 cells, MudPIT MS.
In test [4] the target is T1, VCIP135 (human) (UniProt Q96JH7).
T1 sequence (looked up): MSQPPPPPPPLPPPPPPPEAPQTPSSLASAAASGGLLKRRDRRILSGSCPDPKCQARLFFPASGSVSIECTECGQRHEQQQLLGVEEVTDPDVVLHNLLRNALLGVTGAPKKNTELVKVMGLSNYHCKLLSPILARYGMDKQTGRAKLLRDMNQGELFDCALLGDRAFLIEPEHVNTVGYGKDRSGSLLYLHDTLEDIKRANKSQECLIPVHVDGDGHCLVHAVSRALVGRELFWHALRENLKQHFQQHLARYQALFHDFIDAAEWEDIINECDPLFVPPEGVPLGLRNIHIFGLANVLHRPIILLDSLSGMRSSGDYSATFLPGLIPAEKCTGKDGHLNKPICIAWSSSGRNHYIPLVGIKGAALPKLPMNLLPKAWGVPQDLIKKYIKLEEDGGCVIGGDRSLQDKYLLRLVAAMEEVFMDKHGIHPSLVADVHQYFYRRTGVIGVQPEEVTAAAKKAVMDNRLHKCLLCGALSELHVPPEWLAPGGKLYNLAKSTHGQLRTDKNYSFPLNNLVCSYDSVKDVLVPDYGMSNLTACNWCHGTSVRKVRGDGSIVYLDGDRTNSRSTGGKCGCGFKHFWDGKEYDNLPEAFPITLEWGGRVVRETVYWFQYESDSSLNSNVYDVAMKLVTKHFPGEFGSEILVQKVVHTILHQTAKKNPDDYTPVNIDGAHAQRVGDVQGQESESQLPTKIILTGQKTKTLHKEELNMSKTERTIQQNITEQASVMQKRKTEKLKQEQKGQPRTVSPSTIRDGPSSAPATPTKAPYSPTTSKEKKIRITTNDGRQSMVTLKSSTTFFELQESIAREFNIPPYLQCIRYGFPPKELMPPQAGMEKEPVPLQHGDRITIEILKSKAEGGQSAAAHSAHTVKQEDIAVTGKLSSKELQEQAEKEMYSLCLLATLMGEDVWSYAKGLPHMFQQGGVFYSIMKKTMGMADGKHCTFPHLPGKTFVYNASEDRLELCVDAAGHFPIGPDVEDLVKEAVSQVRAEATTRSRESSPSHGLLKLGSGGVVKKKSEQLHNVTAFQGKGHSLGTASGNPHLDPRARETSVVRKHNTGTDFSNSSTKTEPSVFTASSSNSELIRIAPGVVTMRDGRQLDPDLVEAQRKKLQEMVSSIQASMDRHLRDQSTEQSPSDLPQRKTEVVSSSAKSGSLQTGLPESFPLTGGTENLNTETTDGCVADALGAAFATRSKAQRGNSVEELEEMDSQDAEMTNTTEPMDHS
Nature of the test: Flag co-IP, 293 cells, MudPIT MS.

The target in test [5] is T2, endogenous UFD1 (human) (UniProt Q92890).
T2 sequence (looked up): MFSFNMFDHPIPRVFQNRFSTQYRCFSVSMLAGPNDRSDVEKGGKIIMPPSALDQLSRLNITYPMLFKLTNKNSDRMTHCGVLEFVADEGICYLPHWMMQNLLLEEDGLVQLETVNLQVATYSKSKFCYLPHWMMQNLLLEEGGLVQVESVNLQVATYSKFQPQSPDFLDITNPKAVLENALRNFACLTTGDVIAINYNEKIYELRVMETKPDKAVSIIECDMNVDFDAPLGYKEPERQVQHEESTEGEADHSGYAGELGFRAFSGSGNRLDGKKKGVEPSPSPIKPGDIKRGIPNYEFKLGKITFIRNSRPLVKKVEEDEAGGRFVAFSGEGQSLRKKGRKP
The experiment in a line: Flag co-IP, 293 cells, MudPIT MS.

For test [6], the target named is Galectin-3 binding protein. LG3BP (human) (UniProt Q08380). The experiment in a line: Flag co-IP, MudPIT MS, DMSO.
Test [7] addresses Ubiquitin conjugation factor E4 B, UBE4B (Ufd2ortholog) (human) (UniProt O95155). The experiment in a line: Flag co-IP, MudPIT MS, DMSO.
For test [8], the target named is EDD1/UBR5 (human) (UniProt O95071). Nature of the test: Flag co-IP, MudPIT MS, DMSO.
Test [9] deals with DNA damage-binding protein I. DDB1 (human) (UniProt Q16531). The experiment in a line: Flag co-IP, MudPIT MS, DMSO.
Test [10] addresses Retinoblastoma-associated factor 600, UBR4 (human) (UniProt Q5T4S7). Nature of the test: Flag co-IP, MudPIT MS, MG132.
Test [11] deals with Cullin 2 (human) (UniProt Q13617). The experiment in a line: Flag co-IP, MudPIT MS, MG132.
The target in test [12] is Ubiquitin conjugation factor E4 B, UBE4B (Ufd2ortholog) (human) (UniProt O95155). The experiment in a line: Flag co-IP, MudPIT MS, MG132.
Test [13] concerns the target gp78 (human) (UniProt Q9UKV5). Nature of the test: Flag co-IP, MudPIT MS, MG132.
The target in test [14] is DNA damage-binding protein I. DDB1 (human) (UniProt Q16531). The experiment in a line: Flag co-IP, MudPIT MS, MG132.

Chain of EDD1/UBR5 (human) (O95071 2-2799 limits assumed): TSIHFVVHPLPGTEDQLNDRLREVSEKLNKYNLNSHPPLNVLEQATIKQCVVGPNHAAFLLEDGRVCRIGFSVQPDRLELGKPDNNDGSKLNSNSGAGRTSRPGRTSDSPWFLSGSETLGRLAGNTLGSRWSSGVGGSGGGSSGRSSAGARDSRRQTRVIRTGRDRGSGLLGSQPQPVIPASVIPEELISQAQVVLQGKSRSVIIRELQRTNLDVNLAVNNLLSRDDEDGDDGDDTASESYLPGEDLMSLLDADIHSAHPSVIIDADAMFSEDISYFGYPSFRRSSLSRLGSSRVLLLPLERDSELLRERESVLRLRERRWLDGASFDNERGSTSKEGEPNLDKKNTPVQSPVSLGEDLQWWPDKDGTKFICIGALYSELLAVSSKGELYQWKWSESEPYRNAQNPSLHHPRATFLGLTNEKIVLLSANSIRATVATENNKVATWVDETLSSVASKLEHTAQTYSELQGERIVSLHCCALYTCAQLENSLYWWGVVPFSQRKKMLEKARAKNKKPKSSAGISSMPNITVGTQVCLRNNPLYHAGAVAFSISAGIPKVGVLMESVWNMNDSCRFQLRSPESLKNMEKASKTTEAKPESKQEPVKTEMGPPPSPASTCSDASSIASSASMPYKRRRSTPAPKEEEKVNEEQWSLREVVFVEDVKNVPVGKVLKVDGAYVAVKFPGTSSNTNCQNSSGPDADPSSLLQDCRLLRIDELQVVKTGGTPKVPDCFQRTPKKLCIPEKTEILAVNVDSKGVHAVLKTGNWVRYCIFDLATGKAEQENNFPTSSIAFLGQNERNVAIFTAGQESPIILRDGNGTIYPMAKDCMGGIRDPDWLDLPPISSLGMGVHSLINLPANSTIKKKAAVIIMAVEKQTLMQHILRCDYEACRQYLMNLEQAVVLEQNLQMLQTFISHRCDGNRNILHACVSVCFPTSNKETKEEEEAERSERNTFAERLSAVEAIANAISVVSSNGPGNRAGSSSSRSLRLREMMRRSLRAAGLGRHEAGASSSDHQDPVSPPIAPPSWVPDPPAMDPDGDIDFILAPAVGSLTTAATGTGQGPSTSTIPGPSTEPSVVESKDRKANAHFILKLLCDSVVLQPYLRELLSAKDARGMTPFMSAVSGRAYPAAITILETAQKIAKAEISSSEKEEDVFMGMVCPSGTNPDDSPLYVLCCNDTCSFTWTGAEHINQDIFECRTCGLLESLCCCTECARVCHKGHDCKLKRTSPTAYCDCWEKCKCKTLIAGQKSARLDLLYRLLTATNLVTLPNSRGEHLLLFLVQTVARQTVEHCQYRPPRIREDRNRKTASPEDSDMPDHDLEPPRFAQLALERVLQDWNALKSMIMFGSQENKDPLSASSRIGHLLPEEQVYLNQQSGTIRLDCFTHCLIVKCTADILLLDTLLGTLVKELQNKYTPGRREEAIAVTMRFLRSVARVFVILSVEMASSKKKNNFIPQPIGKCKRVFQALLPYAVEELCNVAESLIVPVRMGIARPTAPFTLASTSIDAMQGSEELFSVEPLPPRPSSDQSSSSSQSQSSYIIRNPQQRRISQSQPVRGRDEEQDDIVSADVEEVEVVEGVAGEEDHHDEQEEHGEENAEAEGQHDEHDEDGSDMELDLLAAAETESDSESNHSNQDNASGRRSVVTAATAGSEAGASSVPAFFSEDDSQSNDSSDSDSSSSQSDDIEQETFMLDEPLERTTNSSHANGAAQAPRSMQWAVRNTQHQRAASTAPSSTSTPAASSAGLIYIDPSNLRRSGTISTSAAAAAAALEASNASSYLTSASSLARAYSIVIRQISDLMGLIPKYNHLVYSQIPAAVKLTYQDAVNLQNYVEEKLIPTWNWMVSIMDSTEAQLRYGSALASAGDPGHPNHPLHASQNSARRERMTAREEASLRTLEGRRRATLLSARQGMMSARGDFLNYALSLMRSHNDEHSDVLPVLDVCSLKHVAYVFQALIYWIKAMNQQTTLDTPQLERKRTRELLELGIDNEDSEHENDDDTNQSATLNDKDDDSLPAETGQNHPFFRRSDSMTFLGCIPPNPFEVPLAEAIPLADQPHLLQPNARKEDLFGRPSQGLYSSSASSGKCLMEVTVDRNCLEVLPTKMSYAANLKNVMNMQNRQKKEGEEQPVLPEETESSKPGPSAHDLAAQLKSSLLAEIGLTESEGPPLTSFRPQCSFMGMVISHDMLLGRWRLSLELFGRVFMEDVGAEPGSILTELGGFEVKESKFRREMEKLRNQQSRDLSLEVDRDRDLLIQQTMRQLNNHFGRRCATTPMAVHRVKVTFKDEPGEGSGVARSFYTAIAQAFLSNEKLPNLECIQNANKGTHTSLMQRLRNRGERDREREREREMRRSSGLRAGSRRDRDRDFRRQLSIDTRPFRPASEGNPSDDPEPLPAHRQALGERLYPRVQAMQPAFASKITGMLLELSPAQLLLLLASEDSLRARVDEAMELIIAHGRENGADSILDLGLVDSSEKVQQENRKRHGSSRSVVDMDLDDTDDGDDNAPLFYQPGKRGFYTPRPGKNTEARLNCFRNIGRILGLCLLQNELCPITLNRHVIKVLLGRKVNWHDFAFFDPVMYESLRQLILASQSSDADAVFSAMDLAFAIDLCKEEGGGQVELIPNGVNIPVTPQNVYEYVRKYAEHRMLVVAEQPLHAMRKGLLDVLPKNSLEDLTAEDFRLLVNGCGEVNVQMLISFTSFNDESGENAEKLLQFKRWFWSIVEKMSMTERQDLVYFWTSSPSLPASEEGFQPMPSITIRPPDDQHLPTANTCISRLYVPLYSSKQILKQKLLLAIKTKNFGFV
Chain of endogenous p97 (human) (P55072 2-806 limits assumed): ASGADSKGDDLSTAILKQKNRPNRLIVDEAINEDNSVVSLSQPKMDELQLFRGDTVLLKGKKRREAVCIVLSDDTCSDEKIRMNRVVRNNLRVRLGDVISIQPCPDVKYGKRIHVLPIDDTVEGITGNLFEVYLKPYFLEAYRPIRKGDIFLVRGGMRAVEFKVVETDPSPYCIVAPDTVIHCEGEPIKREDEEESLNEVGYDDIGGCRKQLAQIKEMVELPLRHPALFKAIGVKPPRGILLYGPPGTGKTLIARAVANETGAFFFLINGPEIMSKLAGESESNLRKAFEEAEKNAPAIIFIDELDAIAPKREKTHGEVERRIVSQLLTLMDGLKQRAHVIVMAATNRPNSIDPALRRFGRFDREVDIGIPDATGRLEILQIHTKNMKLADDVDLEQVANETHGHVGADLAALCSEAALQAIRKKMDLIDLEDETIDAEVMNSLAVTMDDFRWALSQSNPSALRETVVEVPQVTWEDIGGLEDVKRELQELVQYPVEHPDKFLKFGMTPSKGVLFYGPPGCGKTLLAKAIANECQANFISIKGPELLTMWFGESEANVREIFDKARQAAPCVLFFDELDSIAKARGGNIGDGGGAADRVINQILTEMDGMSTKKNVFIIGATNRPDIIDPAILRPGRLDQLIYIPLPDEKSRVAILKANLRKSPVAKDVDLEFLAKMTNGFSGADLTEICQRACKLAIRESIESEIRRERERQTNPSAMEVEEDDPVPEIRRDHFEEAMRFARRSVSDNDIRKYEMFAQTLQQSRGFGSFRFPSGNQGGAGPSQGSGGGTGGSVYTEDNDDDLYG
Chain of endogenous NPL4 (human) (Q8TAT6 other isoform, or with tags, fused parts or gaps limits assumed): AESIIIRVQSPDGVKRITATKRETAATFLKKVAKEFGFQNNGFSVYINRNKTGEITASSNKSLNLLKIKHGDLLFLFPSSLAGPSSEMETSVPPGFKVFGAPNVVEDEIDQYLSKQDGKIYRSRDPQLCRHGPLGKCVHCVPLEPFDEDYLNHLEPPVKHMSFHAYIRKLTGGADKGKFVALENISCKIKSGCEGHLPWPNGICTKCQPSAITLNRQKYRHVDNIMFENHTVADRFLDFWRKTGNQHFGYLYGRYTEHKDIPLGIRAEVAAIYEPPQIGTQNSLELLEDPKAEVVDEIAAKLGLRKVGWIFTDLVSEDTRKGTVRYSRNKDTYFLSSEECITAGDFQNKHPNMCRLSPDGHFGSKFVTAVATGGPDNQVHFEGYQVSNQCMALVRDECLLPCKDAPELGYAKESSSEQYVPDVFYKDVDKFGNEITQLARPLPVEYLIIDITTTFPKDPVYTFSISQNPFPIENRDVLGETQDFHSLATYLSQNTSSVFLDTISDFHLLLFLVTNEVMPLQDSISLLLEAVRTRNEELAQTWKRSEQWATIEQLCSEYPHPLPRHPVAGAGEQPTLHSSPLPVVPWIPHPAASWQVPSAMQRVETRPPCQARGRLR
Chain of Cullin 2 (human) (Q13617 whole entry): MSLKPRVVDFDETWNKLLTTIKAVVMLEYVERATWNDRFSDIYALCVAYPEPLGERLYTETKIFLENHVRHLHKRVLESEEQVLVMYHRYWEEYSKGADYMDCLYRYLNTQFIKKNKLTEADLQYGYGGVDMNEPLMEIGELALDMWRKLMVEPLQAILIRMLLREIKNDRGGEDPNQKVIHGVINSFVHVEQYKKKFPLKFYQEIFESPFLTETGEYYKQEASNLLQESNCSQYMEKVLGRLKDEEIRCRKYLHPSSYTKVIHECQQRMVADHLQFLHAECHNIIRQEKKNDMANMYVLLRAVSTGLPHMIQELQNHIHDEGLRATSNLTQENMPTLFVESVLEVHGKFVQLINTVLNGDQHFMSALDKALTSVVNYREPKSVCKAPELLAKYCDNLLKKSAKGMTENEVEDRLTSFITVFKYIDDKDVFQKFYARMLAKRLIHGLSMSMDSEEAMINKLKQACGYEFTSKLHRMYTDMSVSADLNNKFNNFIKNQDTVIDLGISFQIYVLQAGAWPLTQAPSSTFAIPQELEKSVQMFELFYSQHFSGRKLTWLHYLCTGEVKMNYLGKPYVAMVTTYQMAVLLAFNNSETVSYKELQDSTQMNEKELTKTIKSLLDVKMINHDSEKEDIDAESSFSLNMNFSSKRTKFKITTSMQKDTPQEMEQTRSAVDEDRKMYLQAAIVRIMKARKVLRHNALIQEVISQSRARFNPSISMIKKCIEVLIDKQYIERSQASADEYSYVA

For Flag-UBXD5, the sequence count was 6 in [1], 124 in test [2], 2 in test [3] and 20 in test [4]. In addition, the sequence coverage in [1] was determined as 11.6%; in [2], 75.5%; in test [3], 5.2%; in [4], 27.5%. Besides, the spectrum count worked out at 6 in test [1], 783 in [2], 3 in [3] and 25 in [4].

In [1], Flag-UBXD1 (from UniProt Q9BZV1 1-441) had a sequence count of 3, a sequence coverage of 7.5% and a spectrum count of 3. In test [4], the sequence count came to 2, the sequence coverage amounted to 2.5% and the spectrum count is 2.

As for Flag-UBXD3 (from UniProt Q96LJ8 1-280), in test [3], the sequence count turned out to be 7, the sequence coverage stood at 14.1% and the spectrum count stood at 9. Further, in test [5], the sequence count was 3, the sequence coverage is 12.2% and the spectrum count is 3.

For the substance Flag-UBXD6 (from UniProt O00124 1-270), in [3], the sequence count was 9, the sequence coverage is 16.5% and the spectrum count worked out at 16. In addition, in [5], the sequence count stood at 4, the sequence coverage was 19.2% and the spectrum count turned out to be 5. In [4], this substance came in with a sequence count of 2, a sequence coverage of 2.7% and a spectrum count of 2.

In test [1], Flag-ASPL (from UniProt Q9BZE9 1-553) had a sequence count of 10, a sequence coverage of 22.8% and a spectrum count of 10.

Consider Flag-p47 (from UniProt O35987 1-370), for which the abundance factor (AF) came to 1.5 in [6]; 1.1 in test [7]; 0.2 in [8]; 0.5 in [9]; 0.2 in test [10]; 1 in [11]. Also, the abundance factor (AF) in test [12] turned out to be 1.4; in [13], 1.7; in [14], 1. Further, the sequence count in [6] amounted to 3; in test [7], 5; in test [8], 2; in [9] it was 2; in test [10], 2; in [11] it was 2. Further, the sequence count was 5 in test [12], 3 in [13], 3 in test [14] and 27 in test [1]. The spectrum count in test [6] amounted to 3; in test [7], 5; in test [8], 2; in [9], 2; in test [10], 3; in test [11] it was 2. Besides, the spectrum count in test [12] is 5; in test [13] it was 3; in test [14], 3; in test [1], 38. Moreover, in [1], the sequence coverage came to 42.9%.
